Results on one molecule are retold here after patent US20220112547, “BIOCHEMICAL REACTION METHODS AND REAGENTS COMPRISING INTRINSICALLY DISORDERED REGIONS” (Biocrucible Limited, published 2022).

One data set deals with T1, Gp32-HIS2 (phage vB_EcoM_NBG1).
T1 chain: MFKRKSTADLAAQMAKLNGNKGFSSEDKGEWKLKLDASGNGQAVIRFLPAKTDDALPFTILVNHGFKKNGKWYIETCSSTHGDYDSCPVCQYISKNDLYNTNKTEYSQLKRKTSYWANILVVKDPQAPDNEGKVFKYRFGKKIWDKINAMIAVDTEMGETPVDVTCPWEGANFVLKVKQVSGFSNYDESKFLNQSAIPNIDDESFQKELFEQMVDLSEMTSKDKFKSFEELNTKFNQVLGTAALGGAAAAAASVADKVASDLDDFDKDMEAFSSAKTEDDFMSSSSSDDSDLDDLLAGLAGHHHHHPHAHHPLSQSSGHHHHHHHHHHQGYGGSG
Kind of data set: oligo enriched in phase-separated particles; MgOAc, RPA mix, no crowding agent. To be noted: tags: C-terminal HIS2 IDR (human OTX1); label: FAM. On the procedure:
(§1) Reactions were set up according to the following protocol. A reaction mixture was created with the following components: 25 mM Tris HCl pH 8.3, 7.5 mM KOAc, 1 mM DTT, 2.5 mM ATP, 20 mM phosphocreatine, 1 μM creatine kinase, 1 mM dNTPs, 0.2 μM forward primer, 0.2 μM reverse primer, 0.516 μM probe, 22.6 μM Gp32-HIS2 fusion, 8.4 μM UvsX, 15.3 μM UvsY, 0.135 μM S. aureus DNA polymerase (large subunit), and 0.27 μM Exonuclease III. Gp32-His2, UvsX, UvsY, polymerase and Exonuclease III were prepared as a premix before being added in one step to the mixture of primer, buffer, nucleotides and creatine kinase. The total volume was 44 Once combined, 6 μl of 280 mM MgOAc was added to the mixture to achieve a final concentration of 33 mM. 10 μl of the reaction mix was then transferred to a C-Chip haemocytometer slide which was placed on a heated stage set to 39° C. before being observed under the microscope where images were taken under bright field light conditions and fluorescence conditions.

Another data set addresses T2, Gp32-HRP1 (phage vB_EcoM_NBG1).
T2 chain: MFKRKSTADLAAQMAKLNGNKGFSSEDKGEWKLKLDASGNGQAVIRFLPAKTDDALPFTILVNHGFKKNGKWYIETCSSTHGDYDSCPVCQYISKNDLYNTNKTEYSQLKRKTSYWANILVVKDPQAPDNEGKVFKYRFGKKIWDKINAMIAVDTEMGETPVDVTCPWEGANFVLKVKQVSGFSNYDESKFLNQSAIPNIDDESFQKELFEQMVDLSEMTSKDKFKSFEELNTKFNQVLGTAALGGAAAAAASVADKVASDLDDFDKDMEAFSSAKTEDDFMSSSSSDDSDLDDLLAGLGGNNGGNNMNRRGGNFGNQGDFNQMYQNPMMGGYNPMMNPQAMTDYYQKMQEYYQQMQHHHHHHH
The description is as above. To be noted: tags: C-terminal HRP1 IDR (S. cerevisiae Hrp1) and 7xHis; label: FAM. On the procedure: as §1, with “Gp32-HRP” for “Gp32-HIS2”, “Gp32,” for “Gp32-His2,”

As for CCGCAATGGTGCACTCTCAGTACAATCTGCTCTGATG (ssDNA) [FAM oligo probe], the binding result with Gp32-HIS2 and with Gp32-HRP1 was “binds” each time.
